Tests used:
[1] = molecular target: T1, recombinant Notch2 (EGF1-12) Fc fusion protein (human); test: phage selection and ELISA screen on passively immobilized Notch2 (EGF1-12) Fc fusion
T1 construct: passively immobilised for phage selection and ELISA screen; also called Notch2 Fc fusion protein
Experimental: Briefly, 2×10¹³ Fab displaying phage particles were incubated with a passively immobilized, recombinant Notch2 Fc fusion protein (SEQ ID NO:21) comprising the extracellular ligand binding site of Notch2 and surrounding EGF repeats (EGF1-12) in round one. The non-specific phage were washed off, and then the specific phage were eluted with DTT. The eluted output was used to infect TG1 F+bacteria, rescued with helper phage, and then Fab display induced with IPTG (0.25 mM). This process was repeated for two additional rounds and then round three was screened in ELISA against passively immobilized recombinant Notch2 (EGF1-12) Fc fusion (5 μg/ml).

[2] = molecular target: T2, human Notch1 with residues 382-386 mutated to the corresponding human Notch2 residues (385-389), full length, … (human, UniProt P46531 19-2555); test: FACS on transiently transfected HEK 293 cells
T2 construct: G384 is the same in both; also called mutant hNotch1; mutated Notch1
Experimental: FIG. 15. In vitro characterization of 59R5. […] PC3 tumor cells were transiently transfected with human or mouse Notch receptor (hN2, human Notch2; mN2, murine Notch2; hN3, human Notch3; mN3, murine Notch3) and GFP inducible reporter construct. Transfected cells were incubated with different concentrations of antibody 59R1 and 59R5 in the presence of passively immobilized DLL4 Fc. […] Cells were also co-transfected with a plasmid encoding green fluorescent protein (GFP) to mark those cells that received transfected plasmid. Cells were incubated with 59R1 or 59R5 and fluorescent secondary antibody and then examined by FACS.
The binding epitope of 59R5 was determined. As was described in Example 3 for analysis of antibody 59R1, several point mutants were created within full-length Notch1, converting residues within EGF10 to the corresponding amino acids in human Notch 2. Mutants in full-length Notch sequences were generated by QuikChange® mutagenesis (Stratagene) and verified by sequencing. […] Cells were also co-transfected with a plasmid encoding green fluorescent protein (GFP) to mark those cells that received transfected plasmid. Cells were incubated with 59R1 or 59R5 and fluorescent secondary antibody and then examined by FACS. 59R1 and 59R5 were detected by PE-conjugated goat anti-human Fc gamma specific antibody (Jackson Immunochemicals, #109-1,6-170).

T2 sequence (P46531 other isoform, or with tags, fused parts or gaps limits assumed, change not shown): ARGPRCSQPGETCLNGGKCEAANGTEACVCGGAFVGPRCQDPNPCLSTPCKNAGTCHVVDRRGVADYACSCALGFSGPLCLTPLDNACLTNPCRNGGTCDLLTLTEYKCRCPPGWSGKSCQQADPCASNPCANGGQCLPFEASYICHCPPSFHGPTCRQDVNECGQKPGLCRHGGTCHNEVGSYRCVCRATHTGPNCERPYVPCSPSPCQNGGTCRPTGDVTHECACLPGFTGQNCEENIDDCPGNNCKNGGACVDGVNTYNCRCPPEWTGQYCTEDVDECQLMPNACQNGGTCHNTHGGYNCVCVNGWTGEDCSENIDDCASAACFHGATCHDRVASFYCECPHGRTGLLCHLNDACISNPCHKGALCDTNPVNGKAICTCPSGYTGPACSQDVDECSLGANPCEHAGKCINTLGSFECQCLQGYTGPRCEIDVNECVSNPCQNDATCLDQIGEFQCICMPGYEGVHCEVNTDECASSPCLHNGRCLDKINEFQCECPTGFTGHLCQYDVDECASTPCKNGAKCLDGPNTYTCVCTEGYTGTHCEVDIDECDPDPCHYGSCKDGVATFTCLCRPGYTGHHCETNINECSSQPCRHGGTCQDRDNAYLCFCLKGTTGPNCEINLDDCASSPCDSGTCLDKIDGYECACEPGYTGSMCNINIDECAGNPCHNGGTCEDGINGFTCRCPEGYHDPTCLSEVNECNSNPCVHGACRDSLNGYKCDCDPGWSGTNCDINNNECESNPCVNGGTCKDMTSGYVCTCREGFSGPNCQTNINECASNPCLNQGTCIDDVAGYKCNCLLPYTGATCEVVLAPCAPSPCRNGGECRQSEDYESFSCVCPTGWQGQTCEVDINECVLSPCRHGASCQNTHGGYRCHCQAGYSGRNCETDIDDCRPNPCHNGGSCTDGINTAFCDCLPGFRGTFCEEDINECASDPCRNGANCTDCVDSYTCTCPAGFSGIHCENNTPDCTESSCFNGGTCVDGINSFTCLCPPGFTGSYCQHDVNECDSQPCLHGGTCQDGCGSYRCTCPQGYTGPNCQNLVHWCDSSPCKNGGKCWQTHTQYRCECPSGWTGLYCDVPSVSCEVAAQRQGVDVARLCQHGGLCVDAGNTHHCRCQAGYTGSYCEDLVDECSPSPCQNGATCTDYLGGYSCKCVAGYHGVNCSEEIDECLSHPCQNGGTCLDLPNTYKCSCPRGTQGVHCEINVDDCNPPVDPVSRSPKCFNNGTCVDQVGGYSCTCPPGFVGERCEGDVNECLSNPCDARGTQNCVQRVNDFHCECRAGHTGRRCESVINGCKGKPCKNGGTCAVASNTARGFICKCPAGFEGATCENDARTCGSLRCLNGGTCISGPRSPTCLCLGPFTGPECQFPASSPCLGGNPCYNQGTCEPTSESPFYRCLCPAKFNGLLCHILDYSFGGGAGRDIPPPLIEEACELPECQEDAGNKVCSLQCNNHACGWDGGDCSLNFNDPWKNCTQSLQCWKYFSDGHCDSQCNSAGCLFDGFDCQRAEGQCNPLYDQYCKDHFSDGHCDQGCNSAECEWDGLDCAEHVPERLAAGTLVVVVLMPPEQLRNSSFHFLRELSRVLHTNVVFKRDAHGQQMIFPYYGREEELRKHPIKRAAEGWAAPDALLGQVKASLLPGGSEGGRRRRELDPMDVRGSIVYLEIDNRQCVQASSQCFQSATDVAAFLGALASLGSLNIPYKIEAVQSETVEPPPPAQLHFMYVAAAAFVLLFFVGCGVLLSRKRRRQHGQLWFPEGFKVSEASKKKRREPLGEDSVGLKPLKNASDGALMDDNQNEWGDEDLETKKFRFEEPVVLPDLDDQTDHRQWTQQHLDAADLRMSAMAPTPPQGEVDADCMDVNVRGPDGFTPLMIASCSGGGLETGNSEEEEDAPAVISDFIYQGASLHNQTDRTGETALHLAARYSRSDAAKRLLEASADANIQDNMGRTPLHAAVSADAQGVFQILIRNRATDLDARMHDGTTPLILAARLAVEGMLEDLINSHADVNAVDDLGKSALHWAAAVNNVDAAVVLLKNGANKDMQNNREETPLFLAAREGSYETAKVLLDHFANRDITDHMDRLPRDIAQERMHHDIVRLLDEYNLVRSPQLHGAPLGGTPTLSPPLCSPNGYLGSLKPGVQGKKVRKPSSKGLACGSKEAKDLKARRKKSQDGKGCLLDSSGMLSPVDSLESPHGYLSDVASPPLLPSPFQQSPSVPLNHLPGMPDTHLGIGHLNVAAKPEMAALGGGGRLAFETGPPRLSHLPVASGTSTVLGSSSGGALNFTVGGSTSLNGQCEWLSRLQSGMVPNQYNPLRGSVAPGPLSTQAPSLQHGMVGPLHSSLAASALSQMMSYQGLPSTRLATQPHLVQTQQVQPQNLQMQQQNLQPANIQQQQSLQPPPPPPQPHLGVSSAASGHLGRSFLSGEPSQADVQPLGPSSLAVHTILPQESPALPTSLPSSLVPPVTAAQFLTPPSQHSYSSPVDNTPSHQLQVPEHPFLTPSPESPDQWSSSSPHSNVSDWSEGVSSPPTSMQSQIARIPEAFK
T1 sequence (chain, as listed by the source limits assumed): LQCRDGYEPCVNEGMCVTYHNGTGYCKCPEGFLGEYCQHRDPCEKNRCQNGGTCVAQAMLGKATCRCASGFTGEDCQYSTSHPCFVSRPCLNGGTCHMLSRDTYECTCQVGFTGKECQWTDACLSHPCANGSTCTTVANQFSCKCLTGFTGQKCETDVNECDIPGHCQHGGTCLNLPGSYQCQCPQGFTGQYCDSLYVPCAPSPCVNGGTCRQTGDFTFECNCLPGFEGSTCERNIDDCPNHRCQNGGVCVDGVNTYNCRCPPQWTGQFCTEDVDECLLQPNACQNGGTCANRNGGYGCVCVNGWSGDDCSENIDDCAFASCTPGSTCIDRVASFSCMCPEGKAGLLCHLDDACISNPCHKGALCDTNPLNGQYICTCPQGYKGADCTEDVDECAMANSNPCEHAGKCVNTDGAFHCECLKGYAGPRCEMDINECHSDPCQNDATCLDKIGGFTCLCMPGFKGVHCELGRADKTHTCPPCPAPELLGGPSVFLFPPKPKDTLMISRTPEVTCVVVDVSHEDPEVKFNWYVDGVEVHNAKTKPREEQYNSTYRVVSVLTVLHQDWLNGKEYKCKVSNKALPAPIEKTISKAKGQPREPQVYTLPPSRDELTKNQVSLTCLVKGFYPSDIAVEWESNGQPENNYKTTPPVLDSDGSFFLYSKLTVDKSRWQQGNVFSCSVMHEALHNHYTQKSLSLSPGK

Binder | binding result [1] | binding result [2]
59R1 Fab (Fab, V domains shown, Human Fab from a synthetic phage library; also called Clone 1; clone 1) VH: QVQLVESGGGLVQPGGSLRLSCAASGFTFSSSGMSWVRQAPGKGLEWVSVIASSGSNTYYADSVKGRFTISRDNSKNTLYLQMNSLRAEDTAVYYCARGIFFAIWGQGTLVTVSS VL: not shown | binds | 
59R5 antibody (antibody, human IgG2, kappa, V domains shown, also called anti-Notch2/3 antibody 59R5; 59R5 IgG2) VH: EVQLVESGGGLVQPGGSLRLSCAASGFTFSSSGMSWVRQAPGKGLEWVSVIASSGSNTYYADSVKGRFTISRDNSKNTLYLQMNSLRAEDTAVYYCARSIFYTTWGQGTLVTVSS VL: not shown |  | binds

Reference: patent US20100111958A1 (published 2010)
